What was measured:
mouse LAG-3 = target: T1, mouse LAG-3 (mouse, UniProt Q61790 24-442, limits assumed); assay: Biacore (SPR)
T1 construct: also called mLAG-3
T1 sequence (looked up): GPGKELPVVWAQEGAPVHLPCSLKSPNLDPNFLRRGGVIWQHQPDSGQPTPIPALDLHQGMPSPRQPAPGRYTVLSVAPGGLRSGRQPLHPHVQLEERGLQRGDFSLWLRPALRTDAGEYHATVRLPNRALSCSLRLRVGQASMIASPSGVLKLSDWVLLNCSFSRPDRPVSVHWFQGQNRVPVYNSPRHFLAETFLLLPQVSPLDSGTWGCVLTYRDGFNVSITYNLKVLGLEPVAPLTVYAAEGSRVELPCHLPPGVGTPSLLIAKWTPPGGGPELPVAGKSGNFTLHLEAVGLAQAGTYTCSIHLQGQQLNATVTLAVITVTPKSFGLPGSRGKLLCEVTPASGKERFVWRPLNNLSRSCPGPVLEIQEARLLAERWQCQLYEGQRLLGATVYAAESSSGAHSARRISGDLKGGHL

mouse PD-L1 = target: T2, mouse PD-L1 (mouse, UniProt Q9EP73 19-239, limits assumed); assay: Biacore (SPR)
T2 construct: also called mPD-L1
T2 sequence (Q9EP73 19-239 limits assumed): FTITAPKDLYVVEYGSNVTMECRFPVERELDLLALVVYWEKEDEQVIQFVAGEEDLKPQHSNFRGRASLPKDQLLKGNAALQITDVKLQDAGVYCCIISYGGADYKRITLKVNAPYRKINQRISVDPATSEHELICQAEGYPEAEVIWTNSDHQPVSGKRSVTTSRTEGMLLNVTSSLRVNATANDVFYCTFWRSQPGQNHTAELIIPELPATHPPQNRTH

Biacore binding affinity, fold lower than the binding of FS118 to hLAG-3 (mouse LAG-3): ~20 fold
Biacore binding affinity, fold higher than the binding of FS118 to hPD-L1 (mouse PD-L1): ~10 fold
B1: anti-mouse LAG-3/PD-L1 mAb^2 FS18-7-108-29/S1 (with LALA mutation) (bispecific antibody, V domains shown)
VH: not shown
VL: DIQMTQSPSSLSASVGDRVTITCRASQDVSTAVAWYQQKPGKAPKLLIYSASFLYSGVPSRFSGSGSGTDFTLTISSLQPEDFATYYCQQYLFTPPTFGQGTKVEIKR
notes: also called mouse surrogate mAb^2; mLAG-3/PD-L1

Source: patent US20220275092A1 (F STAR THERAPEUTICS, published 2022)
